Paper PMC11910503, “Novel metal sites revealed by spectroscopic and structural characterization of the ferric uptake regulator from Acidithiobacillus ferrooxidans”
Positions count from the first letter of the chain named.

T1: AfFur H93A (Acidithiobacillus ferrooxidans ATCC …, UniProt B7J425 1-158, H93A)
T1 sequence: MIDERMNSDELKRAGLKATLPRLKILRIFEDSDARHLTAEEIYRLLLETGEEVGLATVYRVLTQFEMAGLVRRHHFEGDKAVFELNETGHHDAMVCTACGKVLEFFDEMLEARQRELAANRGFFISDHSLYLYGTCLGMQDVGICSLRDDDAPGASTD

T2: AfFur WT (Acidithiobacillus ferrooxidans ATCC …, UniProt B7J425 1-158)
T2 sequence: T1 sequence with A93H

T3: AfFur H91K (Acidithiobacillus ferrooxidans ATCC …, UniProt B7J425 1-158, H91K)
T3 sequence: T1 sequence with H91K, A93H

T4: AfFur E84A (Acidithiobacillus ferrooxidans ATCC …, UniProt B7J425 1-158, E84A)
T4 sequence: T1 sequence with E84A, A93H

T5: AfFur E104K (Acidithiobacillus ferrooxidans ATCC …, UniProt B7J425 1-158, E104K)
T5 sequence: T1 sequence with A93H, E104K

T6: AfFur H91D (Acidithiobacillus ferrooxidans ATCC …, UniProt B7J425 1-158, H91D)
T6 sequence: T1 sequence with H91D, A93H

T7: AfFur C96A (Acidithiobacillus ferrooxidans ATCC …, UniProt B7J425 1-158, C96A)
T7 sequence: T1 sequence with A93H, C96A

T8: AfFur C99A (Acidithiobacillus ferrooxidans ATCC …, UniProt B7J425 1-158, C99A)
T8 sequence: T1 sequence with A93H, C99A

T9: AfFur C145A (Acidithiobacillus ferrooxidans ATCC …, UniProt B7J425 1-158, C145A)
T9 sequence: T1 sequence with A93H, C145A

T10: AfFur C145W (Acidithiobacillus ferrooxidans ATCC …, UniProt B7J425 1-158, C145W)
T10 sequence: T1 sequence with A93H, C145W

T11: AfFur C136A (Acidithiobacillus ferrooxidans ATCC …, UniProt B7J425 1-158, C136A)
T11 sequence: T1 sequence with A93H, C136A

B1: Bio-MntH-Fur-box (dsDNA)
DNA 1: GGCATCAATAAACGGGAATCATTCTCGTCTACC
DNA 2: GGTAGACGAGAATGATTCCCGTTTATTGATGCC

Tests used:
[1] = molecular target: Ferric Uptake Regulator from Acidithiobacillus ferrooxidans (AfFur), wild type, N-terminal His-tag (Acidithiobacillus ferrooxidans ATCC 23270); experiment: SDS-PAGE and western blot; purified His-tagged AfFur on SDS-PAGE (Coomassie, Figure S2) and western blot with anti-6x His tag antibody (Figure S3); dimer
[2] = molecular target: Ferric Uptake Regulator from Acidithiobacillus ferrooxidans (AfFur), wild type, N-terminal His-tag (Acidithiobacillus ferrooxidans ATCC 23270); experiment: SEC; size-exclusion chromatography of AfFur, data not shown; dimer in solution
AfFur H93A = molecular target: T1, AfFur H93A; experiment: EMSA; 0.1 mM Mn2+, 5 mM Mg2+; 10 mM Tris pH 7.5, 50 mM KCl, 5 mM MgCl2, 0.1 mM MnCl2, 1 mM DTT, 2.5% glycerol, 50 ng/uL poly(dI-dC), 0.05% NP-40; 20 fmol probe, 2.9-3.9 ug protein in 20 uL; conditions: protein: recombinant; tags: N-terminal His6 (pLATE51); chain copies: 2; label: 5' biotin
AfFur WT = molecular target: T2, AfFur WT; experiment: EMSA; holo, 0.1 mM Mn2+, 5 mM Mg2+; shift lost with 200-fold cold probe; 10 mM Tris pH 7.5, 50 mM KCl, 5 mM MgCl2, 0.1 mM MnCl2, 1 mM DTT, 2.5% glycerol, 50 ng/uL poly(dI-dC), 0.05% NP-40; 20 fmol probe, 2.9-3.9 ug protein in 20 uL; conditions: protein: recombinant; tags: N-terminal His6 (pLATE51); chain copies: 2; label: 5' biotin
AfFur H91K = molecular target: T3, AfFur H91K; experiment: EMSA; 0.1 mM Mn2+, 5 mM Mg2+; shift persists with cold probe; 10 mM Tris pH 7.5, 50 mM KCl, 5 mM MgCl2, 0.1 mM MnCl2, 1 mM DTT, 2.5% glycerol, 50 ng/uL poly(dI-dC), 0.05% NP-40; 20 fmol probe, 2.9-3.9 ug protein in 20 uL; conditions: protein: recombinant; tags: N-terminal His6 (pLATE51); chain copies: 2; label: 5' biotin
AfFur E84A = molecular target: T4, AfFur E84A; experiment: as above; conditions: protein: recombinant; tags: N-terminal His6 (pLATE51); chain copies: 2; label: 5' biotin
AfFur E104K = molecular target: T5, AfFur E104K; experiment: EMSA; 0.1 mM Mn2+, 5 mM Mg2+; lost with cold probe; 10 mM Tris pH 7.5, 50 mM KCl, 5 mM MgCl2, 0.1 mM MnCl2, 1 mM DTT, 2.5% glycerol, 50 ng/uL poly(dI-dC), 0.05% NP-40; 20 fmol probe, 2.9-3.9 ug protein in 20 uL; conditions: protein: recombinant; tags: N-terminal His6 (pLATE51); chain copies: 2; label: 5' biotin
AfFur H91D = molecular target: T6, AfFur H91D; experiment: as above; conditions: protein: recombinant; tags: N-terminal His6 (pLATE51); chain copies: 2; label: 5' biotin
AfFur C96A = molecular target: T7, AfFur C96A; experiment: EMSA; 0.1 mM Mn2+, 5 mM Mg2+; also no shift + EDTA; 10 mM Tris pH 7.5, 50 mM KCl, 5 mM MgCl2, 0.1 mM MnCl2, 1 mM DTT, 2.5% glycerol, 50 ng/uL poly(dI-dC), 0.05% NP-40; 20 fmol probe, 2.9-3.9 ug protein in 20 uL; conditions: protein: recombinant; tags: N-terminal His6 (pLATE51); chain copies: 2; label: 5' biotin
AfFur C99A = molecular target: T8, AfFur C99A; experiment: as above; conditions: protein: recombinant; tags: N-terminal His6 (pLATE51); chain copies: 2; label: 5' biotin
AfFur C145A = molecular target: T9, AfFur C145A; experiment: as above; conditions: protein: recombinant; tags: N-terminal His6 (pLATE51); chain copies: 2; label: 5' biotin
AfFur C145W = molecular target: T10, AfFur C145W; experiment: as above; conditions: protein: recombinant; tags: N-terminal His6 (pLATE51); chain copies: 2; label: 5' biotin
AfFur C136A = molecular target: T11, AfFur C136A; experiment: as above; conditions: protein: recombinant; tags: N-terminal His6 (pLATE51); chain copies: 2; label: 5' biotin

stoichiometry N [1] | stoichiometry N [2] | Molecule | binding result (AfFur H93A) | binding result (AfFur WT) | binding result (AfFur H91K) | binding result (AfFur E84A) | binding result (AfFur E104K) | binding result (AfFur H91D) | binding result (AfFur C96A) | binding result (AfFur C99A) | binding result (AfFur C145A) | binding result (AfFur C145W) | binding result (AfFur C136A)
2 | 2 | Ferric Uptake Regulator from Acidithiobacillus ferrooxidans (AfFur), wild type, N-terminal His-tag (natural protein) | – | – | – | – | – | – | – | – | – | – | –
– | – | B1 | no binding | binds | binds | binds | binds | binds | no binding | no binding | no binding | no binding | no binding
